Drawing on US20260116960A1 (SHANGHAI HONGCHENG BIOPHARMACEUTICAL, published 2026), this text covers EC50 and IC50 for two molecules.

Experiment [1] concerns the target T1, Biotinylated Human VEGF165 (Acro, Catalog No. VE5-H82Q0) (human, UniProt P15692-4 27-191, biotinylated (site not stated)).
T1 construct: Bought protein; also called Biotinylated-hVEGF165; Biotin-hVEGF165
Kind of experiment: flow cytometry: antibody titrated on 293T-hPD-1-hCTLA-4 cells, detected with 2 ug/mL biotin-hVEGF165 and PE streptavidin. The protocol:
After centrifugation at 300 g for 5 minutes, the supernatant was discarded, and 100 μL of trispecific antibody solution serially diluted 3-fold with FACS buffer was added, with a starting concentration of 200 nM, and the same volume of FACS buffer was added as a negative control. After mixing, incubated at 4° C. for 60 minutes. After centrifugation and washing three times with FACS buffer, 2 μg/mL Biotin-hVEGF165 was added at 100 μL/well and incubated at 4° C. for 60 minutes. After centrifugation and washing three times with FACS buffer, 100 μL/well of 1:800 diluted PE Streptavidin (BD, Catalog No.: 554061) was added and incubated at 4° C. for 50 minutes. After centrifugation and washing three times with FACS buffer, 100 μL/well of FACS buffer was added to resuspend the cells, and the fluorescence signal was detected on a flow cytometer (BECKMAN COULTER cytoFLEX). The binding activity was fitted using a four-parameter model, and the EC₅₀ value of each antibody binding was calculated.
On the technique in general: A flow cytometer gives signals particle by particle.

The target of experiment [2] is T2, hPD1-mFc (Acro, Catalog No. PD1-H5255) (human, UniProt Q15116 25-167).
T2 construct: Bought protein; also called human PD-1 mouse Fc fusion; not shown: mouse Fc (mFc)
Description: flow cytometry: antibody titrated on CHOK1-hCTLA4 cells, then mixture of hPD1-mFc and biotin-hVEGF165; AF647 anti-mIgG signal. The protocol:
(§1) CHOK1-hCTLA4 cells were obtained by trypsin digestion, washed twice with PBS containing 2% FBS (FACS buffer), and the cell density was adjusted to about 8×10⁵ cells/ml. 200 μL/well of the cells were added to a 96-well U-bottom plate. After centrifugation at 300 g for 5 minutes, the supernatant was discarded and 100 μL of antibody solution serially diluted with FACS buffer was added in triplicate (with starting concentration of 200 nM, 3-fold serial dilution, and the same volume of FACS buffer was used as a negative control). Mixed well and incubated at 4° C. for 60 min. After washing the plate three times with FACS buffer, a mixture consisting of 1 μg/mL hPD1-mFc (Acro, Catalog No.: PD1-H5255) and 1 μg/mL Biotin-hVEGF165 in a 1:1 volume ratio was added to each well at 100 μL/well to detect the simultaneously binding activity of the trispecific antibodies to VEGF and PD-1 after binding to cell surface CTLA-4. […] After washing the plate three times with FACS buffer, 100 μL/well of PBS solution was added to resuspend the cells, and the fluorescence signal was detected on a flow cytometer. The binding activity was fitted using a four-parameter model, and the EC₅₀ value of each antibody was calculated.

Experiment [3] deals with T1, Biotinylated Human VEGF165 (Acro, …). Description: flow cytometry: antibody titrated on CHOK1-hCTLA4 cells, then mixture of hPD1-mFc and biotin-hVEGF165; PE streptavidin signal. The protocol: as §1
The target of experiment [4] is T3, human CTLA-4 on the cell surface (human, UniProt P16410 36-223).
T3 construct: whole, on cells; also called CHO-hCTLA-4 cells; CHOK1-hCTLA4 cells
Kind of experiment: flow cytometry, CHO-hCTLA-4 cells, batch FACS#3.

For experiment [5], the target named is T4, human CTLA-4 protein (Acro, Catalog No. CT4-H52H9) (human, UniProt P16410 36-161).
T4 construct: Bought protein
Description: ELISA, plate coated with human CTLA-4 protein. (An ELISA detects its analyte on a solid surface through an enzyme-linked reagent.)

Experiment [6] concerns the target T5, human PD-1 protein (Acro, Catalog No. PD1-H5221) (human, UniProt Q15116 25-167).
T5 construct: Bought protein; also called human PD1-his; not shown: his tag
Kind of experiment: ELISA, plate coated with human PD-1 protein.

Experiment [7] has as its target T3, human CTLA-4 on the cell surface. Kind of experiment: flow cytometry competition, 293T-hPD-1-hCTLA-4 cells (PD-1 co-expressed), biotin-human CD80.

T3 sequence (P16410 36-223): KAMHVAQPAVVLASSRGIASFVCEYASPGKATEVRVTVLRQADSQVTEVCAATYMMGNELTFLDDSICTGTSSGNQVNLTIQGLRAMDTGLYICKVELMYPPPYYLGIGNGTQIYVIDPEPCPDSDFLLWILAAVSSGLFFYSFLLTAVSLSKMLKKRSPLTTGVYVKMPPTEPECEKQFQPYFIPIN
T1 sequence (P15692 other isoform, or with tags, fused parts or gaps limits assumed): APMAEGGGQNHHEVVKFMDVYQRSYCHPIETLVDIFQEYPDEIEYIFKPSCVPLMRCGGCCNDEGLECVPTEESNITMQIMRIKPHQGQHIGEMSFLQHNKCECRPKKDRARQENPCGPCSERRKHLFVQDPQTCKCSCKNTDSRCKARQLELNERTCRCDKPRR
T4 sequence (P16410 36-161 limits assumed): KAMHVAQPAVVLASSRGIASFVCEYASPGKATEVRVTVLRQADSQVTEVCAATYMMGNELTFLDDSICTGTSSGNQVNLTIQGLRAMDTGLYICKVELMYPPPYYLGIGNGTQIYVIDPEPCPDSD
T5 sequence (Q15116 25-167 limits assumed): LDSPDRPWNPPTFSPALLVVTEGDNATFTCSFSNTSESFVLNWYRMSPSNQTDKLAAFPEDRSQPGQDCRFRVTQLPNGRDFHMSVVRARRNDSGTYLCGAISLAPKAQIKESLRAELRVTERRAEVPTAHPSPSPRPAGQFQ
T2 sequence (Q15116 25-167 limits assumed): as above

B1: HC010-F9 (trispecific antibody, human IgG4 S228P, kappa)
heavy: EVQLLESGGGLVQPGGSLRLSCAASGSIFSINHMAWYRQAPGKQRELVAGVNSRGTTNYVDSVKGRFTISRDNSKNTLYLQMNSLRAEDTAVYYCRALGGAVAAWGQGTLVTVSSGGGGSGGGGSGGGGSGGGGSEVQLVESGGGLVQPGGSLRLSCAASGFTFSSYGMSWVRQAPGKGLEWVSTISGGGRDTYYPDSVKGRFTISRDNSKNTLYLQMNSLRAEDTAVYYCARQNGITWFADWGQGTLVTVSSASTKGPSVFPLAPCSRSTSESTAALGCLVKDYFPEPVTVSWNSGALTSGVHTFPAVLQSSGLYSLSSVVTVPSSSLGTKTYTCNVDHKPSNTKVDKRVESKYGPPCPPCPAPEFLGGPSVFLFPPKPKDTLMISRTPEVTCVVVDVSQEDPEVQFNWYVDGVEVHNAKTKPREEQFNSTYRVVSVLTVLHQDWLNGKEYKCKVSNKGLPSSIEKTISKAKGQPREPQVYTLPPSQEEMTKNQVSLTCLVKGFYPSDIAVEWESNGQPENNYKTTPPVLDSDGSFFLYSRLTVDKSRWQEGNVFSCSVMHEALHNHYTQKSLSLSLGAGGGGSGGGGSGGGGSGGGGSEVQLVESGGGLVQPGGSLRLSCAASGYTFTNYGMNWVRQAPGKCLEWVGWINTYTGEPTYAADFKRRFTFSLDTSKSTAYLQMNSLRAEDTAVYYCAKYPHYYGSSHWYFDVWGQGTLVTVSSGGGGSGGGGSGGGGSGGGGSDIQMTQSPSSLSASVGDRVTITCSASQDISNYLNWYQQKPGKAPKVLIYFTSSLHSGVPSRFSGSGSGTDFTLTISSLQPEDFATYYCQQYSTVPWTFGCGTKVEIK
light: DIQMTQSPSSLSASVGDRVTITCRASESVDNYGISFMNWYQQKPGKAPKLLIYAASNQGSGVPSRFSGSGSGTDFTLTISSLQPEDFATYYCQQSKEVPWTFGGGTKVEIKRTVAAPSVFIFPPSDEQLKSGTASVVCLLNNFYPREAKVQWKVDNALQSGNSQESVTEQDSKDSTYSLSSTLTLSKADYEKHKVYACEVTHQGLSSPVTKSFNRGEC
notes: light: CQ1-3/1-11 VL-kappa; also called H010-F9
What is called EC50 is the midpoint of the concentration-response curve. For orientation: IC50 means the point on the concentration scale where inhibition reaches its midpoint. A lower IC50 goes with greater potency in that assay. In the case of B1, the concentration for a half-maximal effect (EC50) came out at 4.2 nM in experiment [1]; 1.53 nM in experiment [2]; 1.38 nM in experiment [3]; 2.8 nM in experiment [4]; 0.031 nM in experiment [5]; 0.082 nM in experiment [6]. Besides, the IC50 in experiment [7] was approximately 0.002 nM.

B2: HC010-F10 (trispecific antibody, human IgG4 S228P, kappa)
heavy: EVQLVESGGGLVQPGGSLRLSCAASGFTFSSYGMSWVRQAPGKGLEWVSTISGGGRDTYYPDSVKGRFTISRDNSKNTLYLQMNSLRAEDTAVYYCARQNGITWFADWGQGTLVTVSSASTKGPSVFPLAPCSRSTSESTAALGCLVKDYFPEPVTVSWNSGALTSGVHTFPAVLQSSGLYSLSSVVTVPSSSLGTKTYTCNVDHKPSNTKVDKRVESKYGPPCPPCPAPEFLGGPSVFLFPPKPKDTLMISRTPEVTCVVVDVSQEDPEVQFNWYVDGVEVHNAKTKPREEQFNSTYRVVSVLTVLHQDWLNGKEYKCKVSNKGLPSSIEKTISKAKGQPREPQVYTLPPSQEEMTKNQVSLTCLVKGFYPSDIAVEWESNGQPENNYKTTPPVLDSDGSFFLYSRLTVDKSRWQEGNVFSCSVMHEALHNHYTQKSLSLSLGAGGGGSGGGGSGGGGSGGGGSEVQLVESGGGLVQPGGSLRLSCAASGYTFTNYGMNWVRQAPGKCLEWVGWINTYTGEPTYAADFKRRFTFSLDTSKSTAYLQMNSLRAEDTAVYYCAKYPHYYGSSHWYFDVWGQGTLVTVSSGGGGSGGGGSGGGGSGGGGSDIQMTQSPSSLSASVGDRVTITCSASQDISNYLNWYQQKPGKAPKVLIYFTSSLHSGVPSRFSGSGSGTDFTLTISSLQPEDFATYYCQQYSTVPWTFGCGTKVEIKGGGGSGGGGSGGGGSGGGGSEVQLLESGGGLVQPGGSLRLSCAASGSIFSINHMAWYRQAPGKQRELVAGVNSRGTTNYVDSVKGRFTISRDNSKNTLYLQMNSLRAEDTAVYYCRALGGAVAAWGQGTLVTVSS
light: B1 light
notes: light: CQ1-3/1-11 VL-kappa; also called H010-F10
Consider B2, for which the EC50 came to 4.9 nM in experiment [1]; 2.73 nM in experiment [2]; 1.37 nM in experiment [3]; 6.19 nM in experiment [4]; 0.093 nM in experiment [5]; 0.093 nM in experiment [6]. In experiment [7], this molecule displayed a half-inhibitory concentration (IC50) of 0.056 nM.
